Laboratory results published in patent US20230265198A1 (TWIST BIOSCIENCE, published 2023).
Where a chain is given by its changes, count along the chain named.

B1: NRP1-14 (VHH)
VHH: EVQLVESGGGLVQPGGSLRLSCAASGFTFRNFGMGWFRQAPGKEREFVSAISPGGVERYADSVKGRFTISADNSKNTAYLQMNSLKPEDTAVYYCATVGGYDYGYYYGMDVWGQGTLVTVSS
B2: NRP1-211 (antibody, IgG2, V domains shown)
VH: EVQLLESGGGLVQPGGSLRLYCAASGFTFGSYGMSWVRQAPGKGLEWVSSISGSGGSTYYTDSVKGRFTISRDNSKNTLYLQMNSLRAEDTAVYYCVRALAGRRDHWGQGTLVTVSS
VL: DIQMTQSPSSLSASVGDRVTITCRASQTISNYVNWYQQKPGKAPKLLIYAASSLHAGVPSRFSGSGSGTDFTLTISSLQPEDFATYYCQQGYSTPLTFGGGTKVEIK
B3: NRP1-273 (antibody, IgG2, V domains shown)
VH: B2 VH
VL: B2 VL with Q27R, T28R, N31T, V33L
B4: NRP1-271 (antibody, IgG2, V domains shown)
VH: EVQLLESGGGLVQPGGSLRLSCAASGFTFTTYGMSWVRQAPGKGLEWVSAISGSGGTTYYADSVKGRFTISRDNSKNTLYLQMNSLRAEDTAVYYCARVGPGRSIAARQGFKRRNNWFDPWGQGTLVTVSS
VL: DIQMTQSPSSLSASVGDRVTITCRARQSISTYLNWYQQKPGKAPKLLIYSASTLESGVPSRFSGSGSGTDFTLTISSLQPEDFATYYCQQSYRTPWTFGGGTKVEIK
B5: NRP1-214 (antibody, IgG2, V domains shown)
VH: B4 VH
VL: DIQMTQSPSSLSASVGDRVTITCRASQSVSTSLNWYQQKPGKAPKLLIYGASRLQTGVPSRFSGSGSGTDFTLTISSLQPEDFATYYCQQTYSSPRTFGGGTKVEIK
B6: NRP1-280 (antibody, IgG2, V domains shown)
VH: B4 VH
VL: B2 VL
B7: NRP1-216 (antibody, IgG2, V domains shown)
VH: EVQLLESGGGLVQPGGSLRLSCAASGFSFRNYAMSWVRQAPGKGLEWVSTVSGSGSSTYYADSVKGRFTISRDNSKNTLYLQMNSLRAEDTAVYYCARGRRGMPAPDTVRKMAKSHLYFDSWGQGTLVTVSS
VL: B2 VL with T28S, V33L, N34S, H55S, A56G, G91T, S93T, L96Y
B8: NRP1-217 (antibody, IgG2, V domains shown)
VH: EVQLLESGGGLVQPGGSLRLSCAASGFTFGRYAMSWVRQAPGKGLEWVSSISGSGGSTYYADSVKGRFTISRDNSKNTLYLQMNSLRAEDTAVYYCARQRIKPNTPRESFFRRAYSYYGMDVWGQGTLVTVSS
VL: B4 VL with A25T, R26S, S28R, Y32S, S50G, T53N, E55Q, V58A, R93F, W96I
B9: NRP1-16 (VHH)
VHH: EVQLVESGGGLVQPGGSLRLSCAASGRTFSRYVMGWFRQAPGKEREWVATSGTGYGATYADSVKGRFTISADNSKNTAYLQMNSLKPEDTAVYYCARGWLRTGWSIWGQGTLVTVSS
B10: NRP1-219 (antibody, IgG2, V domains shown)
VH: EVQLLESGGGLVQPGGSLRLSCAASGFPFSSYALSWVRQAPGKGLEWVSAITGSGGNTFYADSVKGRFTISRDNSKNTLYLQMNSLRAEDTAVYYCARGGQSGRPRVRGARRLDYYGMDVWGQGTLVTVSS
VL: B5 VL with V29I, T31K, R53K, T56R, T91G, S94A, R96L
B11: NRP1-220 (antibody, IgG2, V domains shown)
VH: EVQLLESGGGLVQPGGSLRLSCAASGFTFRTYDMGWVRQAPGKGLEWVSAVSGSGGTTYYADSVKGRFTISRDNSKNTLYLQMNSLRAEDTAVYYCARETRRVLRRQWRRSYHSYGLDVWGQGTLVTVSS
VL: B4 VL with R26S, T31N, Y32K, S50A, E55Q, S56R, R93K, W96L
B12: NRP1-223 (antibody, IgG2, V domains shown)
VH: EVQLLESGGGLVQPGGSLRLSCAASGFTFKKYAMSWVRQAPGKGLEWVSTISGSGRSTYYADSVKGRFTISRDNSKNTLYLQMNSLRAEDTAVYYCARDLARGTMPRGVIIPHNWFDPWGQGTLVTVSS
VL: B5 VL with S30R, T31N, S32Y, Q55H, T56S, T91S, S94G, R96Y, T97S
B13: NRP1-262 (antibody, IgG2, V domains shown)
VH: B12 VH
VL: B4 VL with A25T, R26S, S30N, S50A, T53G, E55H, S91A, R93G, W96F
B14: NRP1-224 (antibody, IgG2, V domains shown)
VH: B4 VH with T30G, T31S, G33A, S35A, A50G, S52T, G53A, T57S
VL: B4 VL with R26S, S28N, S30G, T31R, S50A, E55H, Y92H, R93S, T94N, W96F
B15: NRP1-225 (antibody, IgG2, V domains shown)
VH: EVQLLESGGGLVQPGGSLRLSCAASGFMFSRYAMSWVRQAPGKGLEWVSAISGSGDTTHYADSVKGRFTISRDNSKNTLYLQMNSLRAEDTAVYYCARGGRGLRLQVPIVRHARKGKDYYMDVWGQGTLVTVSS
VL: B5 VL with V29I, S30G, T31S, S32H, N34S, G50R, R53S, Q89L, S94V, R96L
B16: NRP1-227 (antibody, IgG2, V domains shown)
VH: B15 VH with M28T, F29L, S30R, R31N, I51L, G53S, D56G, T57S, H59Y
VL: B5 VL with A25P, S30T, S32Y, A51S, R53T, T56S, T91S, S93T, S94F
B17: NRP1-228 (antibody, IgG2, V domains shown)
VH: EVQLLESGGGLVQPGGSLRLSCAASGFSFSTHAMTWVRQAPGKGLEWVSTISGLGTGTYYADSVKGRFTISRDNSKNTLYLQMNSLRAEDTAVYYCARSTRGGFDYWGQGTLVTVSS
VL: B4 VL with R26G, S30R, T31S, S50A, E55Q, S56R, S91T, R93T, W96L
B18: NRP1-229 (antibody, IgG2, V domains shown)
VH: EVQLLESGGGLVQPGGSLRLSCAASGLTFSNFAMSWVRQAPGKGLEWVSAISGRGSSTYYADSVKGRFTISRDNSKNTLYLQMNSLRAEDTAVYYCARVMKMSRRIVGRRHRKGDGMDVWGQGTLVTVSS
VL: B5 VL with S28A, V29I, T31R, R53A, T91S, S93R, S94P, R96F
B19: NRP1-232 (antibody, IgG2, V domains shown)
VH: EVQLLESGGGLVQPGGSLRLSCAASGFTFTNYAMNWVRQAPGKGLEWVSSISGSGGRTDYADSVKGRFTISRDNSKNTLYLQMNSLRAEDTAVYYCARLKRGGTNLVRKATRYQFYGMDAWGQGTLVTVSS
VL: B4 VL with R26S, S28N, S30A, T31K, T53N, E55Q, S91N, R93K, W96Y
B20: NRP1-235 (antibody, IgG2, V domains shown)
VH: EVQLLESGGGLVQPGGSLRLSCAASGFTFPNYAMTWVRQAPGKGLEWVSGISGSGGRIYYADSVKGRFTISRDNSKNTLYLQMNSLGAEDTAVYYCARARKFRELLRRNNYSNHYYMDVWGQGTLVTVSS
VL: B5 VL with A25T, V29I, S30G, T31N, S32Y, R53K, T56S, T91G, S94T
B21: NRP1-238 (antibody, IgG2, V domains shown)
VH: B4 VH with T28S, T30S, T31N, A50S, G53H, T57S
VL: B5 VL with V29I, T31S, S32Q, G50R, T56S, T91S, S94T, T97S
B22: NRP1-239 (antibody, IgG2, V domains shown)
VH: B4 VH with T28P, T30S, T31N, G33T, S35G, G53A, T57S, T58P, K65N
VL: DIQMTQSPSSLSTSVGDRVTITCRASQNIGSHLNWYQQKPGKAPKLLIYATSSLRSGVPSRFSGSGSGTDFTLTISSLQPEDFATYYCQQSYRIPLTFGGGTKVEIK
B23: NRP1-244 (antibody, IgG2, V domains shown)
VH: EVQLLESGGGLVQPGGSLRLSCAASGFTFTSYGMSWVRQAPGKGLEWVSTISGSGGYTYYADSVKGRFTISRDNSKNTLYLQMNSLRAEDAAVYYCALWNRYGGLSYWGQGTLVTVSS
VL: B4 VL with R26S, S30A, N34H, S50G, A51T, T53N, E55Q, W96G
B24: NRP1-248 (antibody, IgG2, V domains shown)
VH: EVQLLESGGGLVQPGGSLRLSCAASGFTFSKYAMSWVRQAPGKGLEWVSSISTSGGSTYYADSVKGRFTISRDNSKNTLYLQMNSLRAEDTAVYYCARGLLRLKPERRVRTTYYYGMDVWGQGTLVTVSS
VL: B22 VL with T13A, A25T, N28S, H32Y, T51S, R55Q, R93S, I94T, L96F, T97S
B25: NRP1-252 (antibody, IgG2, V domains shown)
VH: B7 VH with S28T, N31S, Y32L, M34V, V51I, S52T, S56G, S57A, A105T, A113S
VL: B4 VL
B26: NRP1-254 (antibody, IgG2, V domains shown)
VH: EVQLLESGGGLVQPGGSLRLSCAASGFTFNTHAMSWVRQAPGKGLEWVSTISGSGGYTYYADSVKGRFTISRDNSKNTLYLQMNSLRAEDTAVYYCAKDLAAAGDYWGQGTLVTVSS
VL: B4 VL with R26S, S28R, S50A, T53H, E55Q, Y92H, R93T, W96L

Target: T1, neuropilin-1 (NRP1) on HEK293 cells overexpressing NRP1 (UniProt O14786 22-923, limits assumed)
T1 construct: whole, on cells
Assay: flow cytometry, HEK293-NRP1 vs HEK293

| Binder | 100 nM FACS (MFI Ratio) |
| --- | --- |
| B1 | 15.4 |
| B2 | 3.8 |
| B3 | 6.2 |
| B4 | 0.8 |
| B5 | 1 |
| B6 | 0.6 |
| B7 | 3.6 |
| B8 | 2.8 |
| B9 | 15.9 |
| B10 | 1.2 |
| B11 | 2.3 |
| B12 | 12.8 |
| B13 | 6.2 |
| B14 | 1 |
| B15 | 1.1 |
| B16 | 2.6 |
| B17 | 3 |
| B18 | 1.2 |
| B19 | 1.3 |
| B20 | 0.8 |
| B21 | 0.9 |
| B22 | 0.2 |
| B23 | 2.1 |
| B24 | 5 |
| B25 | 1 |
| B26 | 2.8 |
